Reference: patent US20050037421A1 (INSTITUTE FOR ANTIBODIES, published 2005)

B1: anti-LDH VHH clone No. 407, protein A-fused type (VHH)
VHH: AVQLVESGGGSVQTGGSLRLSCVASGYTYSSARIGWFRQAPGKEREGVAAILTDGVTTYYADAVKGRFTISRDNAKNTVYLQMNSLKPEDTAMYYCAIRTSPYSGGWFRVSQYNGWGQGTQVTVSS
notes: not shown: protein A part of the vector after SalI digestion and self-ligation
B2: anti-LDH VHH clone No. 418, protein A-fused type (VHH, not shown: large carriers)
VHH: EVQLVESGGGSVQAGDSLRLSCTTSGFTFANSVMVWYRQGSGNECKLVSSISTDGTTYYSTSVKGRFTISRDNAKNTVYLQMNNLKAEDTAMYYCAADFQASTVGRCDGYGYAKWGQGTQVTVSS
B3: anti-LDH VHH clone No. 415, protein A-fused type (VHH)
VHH: DVQLVESGGGSEQAGGSLRLSCAAPNITYCTGDRSWYRQAPGKEREFVSSINNDGTASYADSVKGRFTISQDIVKKSVYLRMNSLKPEDTAMYYCKTDFVDGTWCAIKFGRTHWGQGTQVTVSS
notes: as for B1
B4: anti-GST VHH clone No. 75, protein A-fused type (VHH, not shown: large carriers)
VHH: AVQLVDSGGGSVQAGGSLRLSCAASGTTYCTYDIAWYRQAPEKDYEFVSVIDSDGSTRYADSVKGRFTISRDNAKNTVYLQMNSLKPEDTAMYYCKTVFKSWCSDGLGTTLPNYWGQGTQVTVSS
B5: anti-LDH VHH clone No. 434, protein A-fused type (VHH)
VHH: EVQLVESGGGSVQAGGSLRLSCAASGYTSGRNYMAWFRQAPGKEREGVGRIYSTGGSARYADSVKGRFTISQDLSNDTMYLQMNNLKPEDTGMYYCAAGKPYGDMLDARGYKYWGHGTQVTVSS
notes: as for B1
B6: anti-LDH VHH clone No. 426, protein A-fused type (VHH)
VHH: EVQLVESGGGSVQAGGSLRLSCAAPGNTYSTNLMGWFRQAPGKEREGVAAICCGRGTTFYADSVKGRFTISQDNAKKMVYLQMELLRPEDTGIYYCASGSVRGIWSGTSQYKYWGQGTQVTVSS
notes: as for B1
B7: anti-LDH VHH clone No. 428, protein A-fused type (VHH)
VHH: QVQLVESGGGLVQPGGSLRLSCAASGFSFSRSGMSWGRQAPGKGFEWVSRISSGGATWYADSVKGRFSISRDNAKNTVYLQLDSLKTEDTGMYYCAASDRSGSTYRGQGTQVTVSS
notes: as for B1
B8: anti-LDH VHH clone No. 421, protein A-fused type (VHH)
VHH: AVQLVESGGGSVQAGGFLRLSCVASVNYCMAWFRQAPGKEREGVAAINRDGRTTAYADSVKGRFTISRGNEKNTVYLLMNNLKAEDTATYYCAAYVGGSYSCGTLENDGYKYWGQGTQVTVSS
notes: as for B1
B9: anti-LDH VHH clone No. 430, protein A-fused type (VHH)
VHH: EVQLVESGGDSVQAGGSLRLSCVASSSTYSGNCMAWFRQAPGKEREGVAVVYTDDDTTYYADSVKGRFTISQDTAKNTLYLQMNSLKPEDTAMYYCATRDAWRRIGSWRDVAIYDYWGQGTQVTVSS
notes: as for B1
B10: anti-GST VHH clone No. 29, protein A-fused type (VHH, not shown: large carriers)
VHH: EVQLVESGGGSVQAGGSLKLSCGLSGYTSSMNAMGWFRQAPGKEREGVAAVSRGGKAYYADSVKGRFTVSRDNVKNTVDLQMKGLKAEDTATYYCAATDESPLRRRFSLLDRRRYDWWGRGTQVFVSS

What was measured:
[1] = biological target: T1, Bacillus stearothemophillus-derived lactic acid dehydrogenase (L-LACTIC DEHYDROGENASE) expressed in E. coli (Bacillus stearothemophillus, UniProt P00344 1-317); assay: ELISA: LDH on the plate (PBS wells as negative control), culture supernatant with VHH-cp3, anti-cp3 monoclonal and anti-mouse IgG-POD, OD 492 nm
T1 construct: purity about 80%; also called LDH
T1 sequence (P00344 whole entry): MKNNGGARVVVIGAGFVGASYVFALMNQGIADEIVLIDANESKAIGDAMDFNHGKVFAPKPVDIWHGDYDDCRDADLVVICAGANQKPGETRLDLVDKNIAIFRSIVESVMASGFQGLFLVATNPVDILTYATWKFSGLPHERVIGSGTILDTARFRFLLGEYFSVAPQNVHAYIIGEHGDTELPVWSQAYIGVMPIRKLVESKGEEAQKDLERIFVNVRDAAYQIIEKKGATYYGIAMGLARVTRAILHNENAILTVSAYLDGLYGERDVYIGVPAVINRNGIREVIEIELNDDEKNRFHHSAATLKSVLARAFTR
Procedure: Similarly to anti-GST VHH, 60 clones and 36 clones were prepared as monoclones from the 3rd and 4th screenings, respectively. Next, ELISA was performed similarly as for anti-GST VHH.
LDH dissolved in PBS at 200 μg/mL was used to sensitize MaxiSorp™. Culture supernatant, 10-fold diluted mouse anti-cp3 monoclonal 3G3A8H1, and 1000-fold diluted goat anti-mouse IgG (H+L)-POD were added as primary, secondary, and tertiary antibodies, respectively, to this antigen-sensitized plate. As negative control, PBS was added instead of performing antigen sensitization.

[2] = biological target: T1, Bacillus stearothemophillus-derived …; assay: cell-based or functional assay
[3] = biological target: glutathione S-transferase (GST); assay: SPR (BIAcore 1000), GST immobilized on CM5, Langmuir model, global fitting
[4] = biological target: glutathione S-transferase (GST); assay: SPR (BIAcore 1000), GST immobilized on CM5, from kinetic analysis
[5] = biological target: glutathione S-transferase (GST); assay: SPR (BIAcore 1000), GST immobilized on CM5, global fitting; mass transport limitation, value used as the lower limit
[6] = biological target: glutathione S-transferase (GST); assay: SPR (BIAcore 1000), GST immobilized on CM5 at 2252 RU
[7] = biological target: glutathione S-transferase (GST); assay: cell-based or functional assay
[8] = biological target: T1, Bacillus stearothemophillus-derived …; assay: SPR (BIAcore), LDH immobilized on CM5 at 5653 RU
Procedure: Procedure similar to that with GST was used to immobilize LDH on CM-sensor chip (Sensor Chip CM5, Research grade, BIAcore) using the amino coupling method.
(§1) […] on CM5 were activated using EDC/NHS (equal amounts of EDC and NHS of Amine Coupling Kit (BIAcore) were mixed) (8-minute contact time), and the chip was washed with HBS-EP (BIAcore). Twenty μg/mL of LDH (Sigma, […] diluted in 10 mM acetic acid (pH5.0)) was then added to the chip. After washing the chip with HBS-EP, 1 M ethanol amine (pH 8.5) was added to inactivate the remaining activated carboxyl groups. Following the inactivation, the chip was washed with HBS-EP to remove all LDHs that had not been covalently bound. The amount of immobilized antigens was calculated 5653 RU. When binding was evaluated by adding saturating amounts of clone No. 430 to the sensor, the value was near 800 RU.

[9] = biological target: T1, Bacillus stearothemophillus-derived …; assay: SPR (BIAcore), LDH immobilized on CM5, 1:1 binding with mass transfer model
Procedure: as §1
(§2) All experiments were performed in HBS-EP at 25° C., and regeneration was performed under optimum conditions. Washing was performed for 1 min using 50 mM citric acid (pH2.5).
(§3) The binding was monitored by changing the LDH concentration (5×10⁻⁸ M to 4.0×10⁻⁷ M). […] Base-line correction was also taken into consideration. Values of ka (1/Ms), kd (1/S), and KD calculated based on kinetic analysis using global fitting (BIAevaluation Ver. 3) were as shown in Table 6.

[10] = biological target: T1, Bacillus stearothemophillus-derived …; assay: SPR (BIAcore), LDH immobilized on CM5, (Langmuir) binding model
Procedure: as §1, §2, §3

[11] = biological target: glutathione S-transferase (GST); assay: SPR (BIAcore 1000), GST immobilized on CM5
[12] = biological target: glutathione S-transferase (GST); assay: SPR (BIAcore 1000), GST immobilized on CM5 at 1750 RU

| Binder | binding result [1] | LDH reaction rate in the direction of lactic acid production [2] [fold] | response at saturating amount (RU) [8] [RU] | Ka [9] [M⁻¹] | Kd [9] [nM] | koff [9] [s⁻¹] | kon [9] [M⁻¹ s⁻¹] | Ka [10] [M⁻¹] | Kd [10] [nM] | koff [10] [s⁻¹] | kon [10] [M⁻¹ s⁻¹] | further results |
| --- | --- | --- | --- | --- | --- | --- | --- | --- | --- | --- | --- | --- |
| B1 | binds |  |  |  |  |  |  |  |  |  |  |  |
| B2 |  | 10 |  |  |  |  |  |  |  |  |  |  |
| B3 | binds |  |  |  |  |  |  |  |  |  |  |  |
| B4 |  |  |  |  |  |  |  |  |  |  |  | kon [3]: 38100 M⁻¹ s⁻¹; Kd [4]: 24 nM; koff [5]: 0.000915 s⁻¹; response at saturating amount (RU) [6]: 300 RU; GST enzyme inhibitory activity (absorbance at 340 nm, CDNB and glutathione as substrates) [7]: > 1.5 µM |
| B5 | binds |  |  |  |  |  |  |  |  |  |  |  |
| B6 | binds |  |  |  |  |  |  |  |  |  |  |  |
| B7 |  | 5 | ~500 | 2.86e+06 | 350 | 0.00516 | 14800 | 2.81e+06 | 356 | 0.00513 | 14400 |  |
| B8 |  | 10 | ~1400 | 5.83e+06 | 171 | 0.00409 | 23900 | 5.83e+06 | 172 | 0.00409 | 23900 |  |
| B9 |  |  | ~800 | 4.04e+06 | 248 | 0.00285 | 11500 | 3.8e+06 | 263 | 0.00258 | 9820 | IC50 of LDH enzyme inhibition [2]: ~400 nM |
| B10 |  |  |  |  |  |  |  |  |  |  |  | koff [11]: 0.00255 s⁻¹; kon [11]: 25400 M⁻¹ s⁻¹; Kd [4]: 100 nM; response at saturating amount (RU) [12]: 460 RU |
